We go through 1 molecule from patent US20230159643A1 (H LUNDBECK A S, published 2023).

Assay [1] addresses T1, Sortilin SORTECDBAP_hB06-10 (human/tetraodon chimera).
T1 construct: Shuffle construct
T1 chain: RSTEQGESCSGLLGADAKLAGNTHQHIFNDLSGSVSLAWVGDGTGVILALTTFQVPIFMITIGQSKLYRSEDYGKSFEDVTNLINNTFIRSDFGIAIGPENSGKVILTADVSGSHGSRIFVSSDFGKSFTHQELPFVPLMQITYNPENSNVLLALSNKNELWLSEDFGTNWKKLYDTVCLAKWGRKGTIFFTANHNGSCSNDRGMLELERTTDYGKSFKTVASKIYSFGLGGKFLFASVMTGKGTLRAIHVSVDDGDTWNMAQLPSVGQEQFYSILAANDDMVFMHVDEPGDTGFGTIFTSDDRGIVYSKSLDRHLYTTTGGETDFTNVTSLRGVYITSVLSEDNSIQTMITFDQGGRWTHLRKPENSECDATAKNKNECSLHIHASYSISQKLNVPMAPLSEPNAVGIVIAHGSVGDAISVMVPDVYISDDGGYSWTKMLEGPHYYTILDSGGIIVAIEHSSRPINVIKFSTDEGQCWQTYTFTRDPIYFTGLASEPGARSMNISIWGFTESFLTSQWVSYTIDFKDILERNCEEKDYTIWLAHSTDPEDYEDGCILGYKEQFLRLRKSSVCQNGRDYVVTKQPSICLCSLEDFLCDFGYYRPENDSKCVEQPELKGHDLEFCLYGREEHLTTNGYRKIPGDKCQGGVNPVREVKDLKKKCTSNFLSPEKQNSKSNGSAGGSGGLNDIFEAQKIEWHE
Briefly: BLI Octet 384RED, antibody on Protein A sensor, Sortilin construct in solution. As to the method: (§1) Binding kinetics of anti-Sortilin HuMab antibodies to Sortilin were determined using Octet 384RED (Fortebio, Menlo Park, USA). HuMab solutions of 2 μg/ml were made by dilution in sample diluent (ForteBio, art. No. 18-5028). Prot A sensors (ForteBio, art. no. 18-0004) were prewetted with kinetics buffer (1:10 sample diluent in PBS) for at least 600 seconds. Subsequently sensors were immobilized with HuMab solution for 600 seconds. A baseline response was obtained by dipping in kinetics buffer for 120 seconds. Association of SORTECD constructs was performed during a 1000 seconds incubation. This was followed by dissociation in kinetics buffer for 100 seconds. After dissociation, sensors were regenerated (10 mM Glycine pH 1.0) and neutralized (kinetics buffer) 3 times for 5 seconds. […] A molecular weight of 76.8 kDA was used for SORTECDHis. Data was fitted with ForteBio Analysis 6.4 software, using a global full fit.

Assay [2] has as its target T2, Sortilin SORTECDBAP_hB45678 (human/tetraodon chimera).
T2 construct: Shuffle construct
T2 chain: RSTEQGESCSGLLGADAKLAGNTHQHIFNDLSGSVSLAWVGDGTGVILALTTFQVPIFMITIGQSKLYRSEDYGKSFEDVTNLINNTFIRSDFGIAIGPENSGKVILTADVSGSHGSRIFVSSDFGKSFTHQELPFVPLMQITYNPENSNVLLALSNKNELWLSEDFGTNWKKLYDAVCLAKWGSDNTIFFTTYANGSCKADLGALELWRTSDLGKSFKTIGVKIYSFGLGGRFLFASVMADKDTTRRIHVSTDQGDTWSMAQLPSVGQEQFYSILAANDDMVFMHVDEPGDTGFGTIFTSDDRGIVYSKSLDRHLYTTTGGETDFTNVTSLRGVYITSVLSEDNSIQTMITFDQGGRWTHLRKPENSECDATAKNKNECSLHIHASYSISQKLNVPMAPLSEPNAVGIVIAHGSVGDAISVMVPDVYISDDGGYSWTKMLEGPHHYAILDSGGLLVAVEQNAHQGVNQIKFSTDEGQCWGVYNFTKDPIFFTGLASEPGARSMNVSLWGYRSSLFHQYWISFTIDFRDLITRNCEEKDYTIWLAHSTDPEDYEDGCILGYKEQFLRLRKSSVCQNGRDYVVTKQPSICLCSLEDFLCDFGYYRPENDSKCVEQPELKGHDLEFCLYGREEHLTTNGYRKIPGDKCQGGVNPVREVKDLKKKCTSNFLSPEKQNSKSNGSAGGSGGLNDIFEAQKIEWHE
The description is as above. The method, then: as §1

B1: 1320 (antibody, V domains shown)
VH: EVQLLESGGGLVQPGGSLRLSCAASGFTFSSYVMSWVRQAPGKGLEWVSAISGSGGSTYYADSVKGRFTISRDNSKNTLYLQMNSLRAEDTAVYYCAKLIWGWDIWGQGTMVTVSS
VL: EIVLTQSPATLSLSPGERATLSCRASQSVSSYLAWYQQRPGQAPRLLIYDASNRATGIPARFSGSGSGTDFTLSISSLEPEDFAVYYCQQRTNWSITFGQGTRLEIK
notes: also called IgG1-6003-1320; Antibody 1320
Regarding B1, the concentration for a half-maximal effect (EC50) in assay [1] came out at 0.0554 µg/mL. For the same molecule, in assay [2], the binding result is “no binding (tested: 10 µg/ml construct)”.
